Test results: patent US9243032B2, “Compositions for treatment of neurodegenerative diseases” (Ramot at Tel-Aviv University Ltd., priority 2009, dated 2016)
Values joined by “and” are separate entries in the source; they are usually repeats but may differ in a detail not shown here. Equal entries are not always repeated. Square brackets hold non-standard residues; d marks the D form. Ends that are not written are not given here. Peptide text beside a SMILES is read from it.

How the values were obtained:
α-syn [1] = biological target: T1, α-syn (Homo sapiens, UniProt P37840); experiment: ThT fluorescence assay of α-syn fibril formation; type: biochemical; conditions: for inhibition of fibril formation: as summarised in Example 4; for dose-dependent inhibition of α-syn aggregation: FIG. 3C
T1 construct: made in house; host or cells: E. coli BL21, pT7-7 vector
Procedure: ThT Florescence Assay: α-syn was dissolved to a concentration of 200 μM in 100 mM Tris buffer (pH 7.4). In order to obtain the monomeric fraction, the protein was filtered through a 100 kDa centricon. Since α-syn is not a globular protein but a natively unfolded one, only monomers and some dimers pass through the filter. […] The samples were incubated at 37° C. with agitation of 850 RPM as described by Tsigelny et al. (Tsigelny et al., 2007 Febs J 274(7), 1862-1877) and the fibrillogenesis rate was followed by thioflavin T (ThT) fluorescence assay (excitation at 450 nm, 2.5 nm slit, and emission at 480 nm, 5 nm slit), after three days of incubation. ThT was added to a 500-fold diluted sample and measured using a Jobin Yvon Horiba Fluoromax 3 fluorimeter.
In order to examine the inhibitory effect of the peptides on α-syn fibril formation, the Thioflavin-T (ThT) binding assay was used. This method provides quantitative information on amyloid fibril growth. α-syn was incubated for several days at 37° C. with vigorous shaking to allow the formation of amyloid fibrils with or without the different β-syn-derived peptides. The fibrillization process was monitored for three days.

α-syn monomers = biological target: T2, α-syn monomers (Homo sapiens, UniProt P37840); experiment: Fluorescence anisotropy affinity study; type: binding; conditions: FIG. 5B, read-out: affinity constant (Kd) towards α-syn monomers
T2 construct: made in house; host or cells: E. coli BL21, pT7-7 vector
Procedure: Fluorescence Anisotropy Studies: β-syn 36 in which tyrosine was substituted with tryptophan (SEQ ID NO: 22—[…]) was dissolved to a concentration of 54 μM. The solution was immediately mixed with α-syn monomer stock solution to varying final concentrations. The peptide polarization measurements were carried out using an ISS K2 fluorometer. The solutions were excited at 280 nm and emission was monitored at 350 nm. For each single point, at least five measurements were collected and their average values were used for the calculation. All experiments were performed using ultra pure water.
To determine the affinity of the interaction between β-syn 36 and α-syn monomers, a peptide containing tryptophan instead of tyrosine at position 39 within β-syn was used, exploiting its intrinsic fluorescence in a fluorescence anisotropy assay. […] Increasing amount of α-syn monomers were titrated into a solution of β-syn 36 peptide and anisotropy was determined (FIG. 5B). The affinity constant was calculated as ˜1 μM.

α-syn [2] = biological target: T1, α-syn; experiment: Soluble oligomer formation, Western blot; type: biochemical; conditions: soluble fraction, ~20-24 hours incubation, FIG. 4B
Procedure: Determination of Soluble Oligomer Formation: Monomeric α-syn was dissolved to a concentration of 200 μM in 100 mM Tris buffer (pH 7.4) and was immediately mixed with or without different β-syn derived peptides at a 1:1 ration to a final concentration of 100 μM, as was described above for the aggregation assay. […], 10 μl of the protein were centrifuged at 13000 RPM for 10 minutes, the supernatant was collected and electrophoresed in acrylamide gel using native loading buffer without β-mercaptoethanol and boiling. The gel was washed 3 times in ddH2O and samples were then transferred to the nitrocellulose membrane using semi-dry blot technique applying 323 mA current for 30 minutes. The membrane was blocked for 1 hour using 5% milk diluted in TBS (0.3% Tween) while shaking. Anti α-syn diluted 1:1000 (Santa Cruz Biotechnology) in 5% milk in TBS (0.3% tween) was added to the membrane for 2 hours incubation followed by several washes with TBS (0.3% Tween). Rabbit anti mouse IgG (Fc specific)-HRP conjugated antibody diluted 1:5000 in 5% milk diluted in TBS (0.3% Tween) was administrated for 1 hour at RT while shaking. Blots were developed after thorough TBS (0.3% Tween) washes using Enhanced Chemiluminescence System (ECL) according to the manufacturer's instructions.
To examine the ability of the peptides to inhibit the early stage of aggregation, soluble fractions of α-syn were collected after incubation with the β-syn peptides. The reaction mixtures were separated using SDS-PAGE followed by western blot analysis using a specific anti α-syn antibody (Santa-Cruz) (FIG. 4A).

α-syn [3] = biological target: T1, α-syn; experiment: Transmission electron microscopy of α-syn fibrils; type: biochemical; conditions: samples from the ThT experiment; FIGS. 3D-K
Procedure: Transmission Electron Microscopy: Samples (10 μL) from the α-syn ThT fluorescence assay (with and without inhibitors) were placed on 400-mesh copper grids covered by carbon-stabilized Formvar film (SPI Supplies, West Chester, Pa.). After 1.5 minutes, excess fluid was removed, and the grids were negatively stained with 10 μl of 2% uranyl acetate solution for 2 minutes. Finally, excess fluid was removed and the samples were viewed in a JEOL 1200EX electron microscope operating at 80 kV.
Transmission electron microscopy (TEM) analysis was performed on samples of α-syn with and without the β-syn inhibitors.

[4] = In vitro peptide stability in mouse brain homogenate; type: in vitro ADME; conditions: fresh mouse brain homogenate, 2 hours, 37° C., HPLC, FIGS. 6A-C
Procedure: In Vitro Assay of Peptide Stability: Peptides were dissolved to form a 1 mM solution in 50 μM Tris buffer (PH=7.6). 120 μl of the peptide solution was diluted into a 10% freshly-taken mouse brain homogenate without the cerebellum (in 1×Tris buffer and 0.5% Triton X-100). A mixture containing 20% peptide solution and 80% mouse brain homogenate was incubated at 37° C. with delicate shaking for 2 hours. The enzyme reaction was stopped by the addition of 0.1 M HCL solution, followed by denaturation of the protein using CH3OH and incubation at 20° C. for 1 hour. The precipitated proteins were centrifuged at 29,000×g for 20 minutes at 4° C. and the supernatant containing the peptide was concentrated under vacuum and separated using a C18 HPLC column. The area of the peak (UV absorbance at 280 nm) corresponding to the intact peptide was compared with an equivalent sample incubated in 50 μM Tris buffer.
Later, the stability of peptide β-syn 36 and the modified retro-inverso peptide was compared using fresh mouse brain homogenate to model serum degradation for a period of 2 hours.

[5] = test system: flies expressing A53T α-syn in their nervous system; type: in vivo, Drosophila
Procedure: Fly Keeping: Flies were reared on standard corneal-molasses medium and were kept at 25° C. Male flies were crossed with virgin females collected no longer than 8 hours or 18 hours after eclosion at 25° C. or 18° C. respectively. Adult offspring (F1) from the crosses were collected up to 9 days after the beginning of their eclosion at 25° C. in order to avoid offspring from the next generation (F2).
Fly Crossing: Male flies carrying the driver elav-Ga14 on their X chromosome were crossed with females carrying the A53T α-syn transgene located on their X chromosome under the UAS promoter. […] Offspring of male flies carrying the driver elav-Ga14 crossed with WT OR females served as control.
Special Fly Feeding: β-syn retro-inverso peptide was added to standard corneal-molasses medium at a concentration of 0.75 mg/ml. The peptide was mixed thoroughly into the medium at 40° C. and the mixture was aliquot into rearing vials. The vials were kept at 4° C. until use. Crosses were performed either on regular Drosophila medium (control) or on medium supplemented with the peptide. Animals were fed on the appropriate medium from the beginning of the larval stage. After eclosion, offspring were transferred into a new vial that was pre-dripped with 0.75 mg/ml peptide solution every second day.
Locomotive (Climbing) Assay: Test tubes, each containing 10 flies, were tapped gently on the table and were let stand for 20 seconds. The percent of flies which climbed about one centimeter from the bottom of the test tube was then calculated over time. Each class had five independent test tube repeats.
In order to assess the effect of the peptide on α-syn in the living organism, a Drosophila model of PD was used. The transgenic flies over express the mutated […] α-syn in their nervous system, via the Gal4-UAS system. A common behavioral phenotype of these flies is defective locomotion; while normal flies tend to climb up along the tube, these flies remain at the bottom (Ueda et al., (1993) Proc Natl Acad Sci USA 90(23), 11282-11286). […] This cross was performed either on regular Drosophila medium or on medium supplemented with 0.75 mg/mL β-syn 36 retro-inverso peptide.

## YVGSKTR ([dY][dV]G[dS][dK][dT][dR]) [β-syn 36D short, β-syn 36D lacking amino acids G, V, L]
α-syn [1]; ThT, FIG. 7F
  inhibition effect on α-syn aggregation: no inhibition effect

## CC(C)C[C@H](NC(=O)[C@@H](NC(=O)CN)C(C)C)C(=O)N[C@@H](Cc1c[nH]c2ccccc12)C(=O)N[C@H](C(=O)NCC(=O)N[C@@H](CO)C(=O)N[C@@H](CCCCN)C(=O)N[C@H](C(=O)N[C@@H](CCCNC(=N)N)C(=O)O)[C@@H](C)O)C(C)C (H-GVLWVGSKTR-OH; N-terminus and C-terminus assumed)
α-syn monomers
  Kd: ~1 µM and 1 µM

## SMAKEGV [β-syn 6short, seven amino acids peptide, aa 9-15 of β-syn, positive control selected by Windisch et al, reference compound]
α-syn [1]
  inhibition of fibril formation: inhibited the fibrils
α-syn [2]
  inhibition of oligomer formation: not the oligomers formation

## GVLYVGSKTR [β-syn 36, decamer, aa 36-45 of β-syn, natural L-amino acids]
α-syn [1]; ThT, peptide excess 5:1 (molar ratio)
  dose-dependent inhibition of α-syn aggregation: less efficient
α-syn [1]; ThT, peptide excess 10:1 (molar ratio)
  dose-dependent inhibition of α-syn aggregation: still efficient
α-syn [1]; ThT, β-syn 36 compared with β-syn 39, FIG. 3B
  inhibition of α-syn aggregation, kinetic analysis: better inhibition
α-syn [1]
  inhibition of fibril formation: inhibited almost completely the formation of both aggregation types
α-syn [3]
  fibril formation by TEM: almost completely inhibited fibril formation
α-syn [2]
  inhibition of oligomer formation: inhibited almost completely the formation of both aggregation types

## VLYVGSKTRE [β-syn 37, decamer, aa 37-46 of β-syn]
α-syn [1]
  inhibition of fibril formation: inhibited the fibrils
α-syn [2]
  inhibition of oligomer formation: not the oligomers formation

## CC(C)C[C@@H](NC(=O)[C@@H](Cc1ccc(O)cc1)NC(=O)[C@H](NC(=O)CNC(=O)[C@@H](CO)NC(=O)[C@@H](CCCCN)NC(=O)[C@H](NC(=O)[C@H](N)CCCNC(=N)N)[C@H](C)O)C(C)C)C(=O)N[C@@H](C(=O)NCC(=O)O)C(C)C [β-syn 36 retro-inverso peptide] (H-[dR][dT][dK][dS]G[dV][dY][dL][dV]G-OH)
[4]
  stability in brain homogenate: elevation in stability
[4]; listed as retro-inverso analogue
  stability in brain homogenate: stable in human serum
[5]; A53T α-syn flies, day 27
  increase in climbing compared to untreated group: 30%
[5]; A53T α-syn flies, medium with 0.75 mg/mL peptide, day 27
  percent of flies climbing: 66%
[5]; control flies on medium with peptide
  effect on locomotion of control flies: no significant effect
[5]; medium with 0.75 mg/mL peptide
  phenotypic recovery of A53T α-syn flies: great phenotypic recovery

## AATGLVKREE [β-syn 78, decamer, aa 78-87 of β-syn]
α-syn [1]
  inhibition of fibril formation: not fibril formation
α-syn [2]
  inhibition of oligomer formation: inhibited oligomers
